Assay results published in patent US20250122303A1 (HUMMINGBIRD BIOSCIENCE PTE, published 2025).
Each block holds one binder with its values, some of them ahead of it.

How the values were obtained:
[1] = molecular target: T1, His-tagged human HER3 (human, UniProt P21860 20-643); assay: BLI (Octet QK384), antibody on anti-human IgG capture tips, His-tagged human HER3 in solution, global 1:1 fit, R^2 = 0.9955, kon Error 5.62E+03; Response -0.0012 / 0.1507 / 0.3396 / 0.4384 at 35 / 69 / 139 / 278 nM
T1 construct: Antigen of the BLI experiments and of the HER2-Fc dimerisation ELISA; also called HER3 His; not shown: His tag
Method: (§1) The anti-HER3 antibody clones in IgG1 format were analysed for binding affinity to human HER3. Bio-Layer Interferometry (BLI) experiments were performed using the Octet QK384 system (ForteBio). anti-Human IgG Capture (AHC) Octet sensor tips (Pall ForteBio, USA) were used to anti-HER3 antibodies (25 nM). All measurements were performed at 25° C. with agitation at 1000 rpm. […] Sensograms were referenced for buffer effects and then fitted using the Octet QK384 user software (Pall ForteBio, USA). Kinetic responses were subjected to a global fitting using a one site binding model to obtain values for association (Kₒₙ), dissociation (Koff) rate constants and the equilibrium dissociation constant (KD). Only curves that could be reliably fitted with the software (R²>0.90) were included in the analysis.

[2] = molecular target: T1, His-tagged human HER3; assay: BLI (Octet QK384), antibody on anti-human IgG capture tips, His-tagged human HER3 35-278 nM, global 1:1 fit
Method: as §1

[3] = molecular target: T1, His-tagged human HER3; assay: BLI (Octet QK384), antibody on anti-human IgG capture tips, His-tagged human HER3 in solution, global one-site fit
Outline: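 Steps: capture of anti-HER3 IgG1 (25 nM) on anti-human IgG tips; association and dissociation of human HER3 at 25° C, 1000 rpm; reference subtraction for buffer; global one-site fitting, retaining R²>0.90.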

[4] = molecular target: T1, His-tagged human HER3; assay: BLI (Octet QK384), antibody on anti-human IgG capture tips, His-tagged human HER3 35-278 nM, global 1:1 fit; kdis Error 1.17E-04
Method: as §1

[5] = molecular target: T1, His-tagged human HER3; assay: BLI (Octet QK384), antibody on anti-human IgG capture tips, His-tagged human HER3 in solution, global 1:1 fit, R^2 = 0.9949, kon Error 6.34E+03; Response 0.0096 / 0.1318 / 0.3036 / 0.3995 at 35 / 69 / 139 / 278 nM
Method: as §1

[6] = molecular target: T1, His-tagged human HER3; assay: BLI (Octet QK384), antibody on anti-human IgG capture tips, His-tagged human HER3 35-278 nM, global 1:1 fit; kdis Error 1.27E-04
Method: as §1

[7] = molecular target: T1, His-tagged human HER3; assay: BLI (Octet QK384), antibody on anti-human IgG capture tips, His-tagged human HER3 in solution, global 1:1 fit, R^2 = 0.9957, kon Error 3.75E+03; Response 0.0006 / 0.0697 / 0.1929 / 0.3524 at 35 / 69 / 139 / 278 nM
Method: as §1

[8] = molecular target: T2, His-tagged FcγRIIIa (V158) (human, UniProt P08637 17-208); assay: BLI (Octet QK384), His-tagged FcgRIIIa (V158) on anti-Penta-HIS tips, antibody 500 nM to 15.6 nM in solution, global 1:1 fit
T2 construct: not shown: His tag
Method: All measurements were performed at 25° C. with agitation at 1000 rpm. […] Sensograms were referenced for buffer effects and then fitted using the Octet QK384 user software (Pall ForteBio, USA). Kinetic responses were subjected to a global fitting using a one site binding model to obtain values for association (Kₒₙ), dissociation (Koff) rate constants and the equilibrium dissociation constant (KD). Only curves that could be reliably fitted with the software (R²>0.90) were included in the analysis.

[9] = molecular target: T3, human HER3 expressed on cells (HEK293 HER3 O/E cells) (human, UniProt P21860 20-1342); assay: flow cytometry, HEK293 cells overexpressing human HER3, 20 ug/ml antibody, FITC anti-Fc secondary; same antibody on WT HEK293: 8.15
T3 construct: Also used here for HER3 on U2OS cells of the PathHunter kit and on cancer cell lines; also called HEK293 cells transfected with vector encoding human HER3; human HER3-expressing cells

[10] = molecular target: T3, human HER3 expressed on cells (HEK293 …); assay: flow cytometry on HEK293T HER3 O/E cells, 10 ug antibody as printed, FITC-conjugated anti-Fc secondary
Method: The cells were washed with buffer (PBS with 2 mM EDTA and 0.5% BSA) and resuspended in FITC-conjugated anti-FC antibody (Invitrogen, USA) at 10 μg/ml for 20 min at 4° C. Cells were washed again and resuspended in 200 μL of FACS flow buffer (PBS with 5 mM EDTA) for flow cytometric analysis using MACSQuant 10 (Miltenyi Biotec, Germany). Unstained WT and transfected HEK293 cells were included in the analysis as negative controls. After acquisition, all raw data were analyzed using Flowlogic software. Cells were gated using forward and side scatter profile percentage of positive cells was determined for native and overexpressing cell populations.

[11] = molecular target: T1, His-tagged human HER3; assay: BLI (Octet QK384), antibody captured on AHC sensors, His-tagged human HER3 in solution, without NRG1
[12] = molecular target: T3, human HER3 expressed on cells (HEK293 …); assay: flow cytometry, HEK293 cells overexpressing human HER3, 20 ug/ml antibody, FITC anti-Fc secondary; same antibody on WT HEK293: 1.91

kon [1]: 163000 M⁻¹ s⁻¹
koff [2]: < 1e-07 s⁻¹
Kd [3]: < 0.001 nM
B1: anti-HER3 clone 10D1_c75 IgG1 (antibody, V domains shown)
VH: DVQLQEWGAGLLKPSETLSLTCAVTGYSITSGYSWHWIRQFPGNGLEWIGSIHYSGGTNYNPTLKSRITISRDTSKNQFSLKLSSVTAADTAVYFCARMTTAPRYPFDYWGQGTLVTVSS
VL: DIVMTQSPSSLSASVGDLVTITCKASQIVGSNVAWYQMKPGKSPKPLIYSASYLYFGVPSRFSGSGSGTDFTLTISSLQPEDVAEYFCQQYSSHPLTFGPGTKVEIKR
notes: Humanised 10D1 variant, IgG1/kappa

koff [4]: 0.000346 s⁻¹
kon [5]: 179000 M⁻¹ s⁻¹
Kd [3]: 1.93 nM
B2: anti-HER3 clone 10D1_c77 IgG1 (antibody, V domains shown)
VH: DVQLQEWGAGLLKPSETLSLTCAVTGYSITSGYSWHWIRQFPGNGLEWIGSIHYSGGTNYNPSLKSRITISRDTSKNQFSLKLSSVTAADTAVYFCARMTTAPRYPFDYWGQGTLVTVSS
VL: VIVMTQSPSSLSASVGDRVTITCKASQIVGPNVAWYQQKPGKSPKPLIYSASYGYSDVPSRFSGSGSGTDFTLTISSLQPEDVAEYFCQQYSTHPLTFGPGTKVEIKR
notes: as for B1

koff [6]: 0.0017 s⁻¹
kon [7]: 93600 M⁻¹ s⁻¹
Kd [3]: 18.2 nM
B3: anti-HER3 clone 10D1_c85o1 IgG1 (antibody, V domains shown)
VH: DVQLQEWGAGLLKPSETLSLTCAVTGYSITSGYSWHWIRQFPGKGLEWIGSIRYSGGTNYNPSLKSRITISRDTSKNQFSLKLGSVTAADTAVYFCARETTAPRYPFDYWGQGTLVTVSS
VL: DIVMTQSPSSLSASVGDRVTITCKASQIVGSNVAWYQQKPGKSPKPLIYSARYQYSGVPFRFSGSGSGTDFTLTISSLQPEDVATYYCQQYSSHPLTFGPGTKVEIKR
notes: Humanised 10D1 variant, IgG1/kappa; also called 10D1_c8501

Kd [8]: 34 nM
B4: 10D1 comprising GASDALIE and LCKC substitutions in CH2 region (antibody, human IgG1, kappa)
heavy: DVQLQESGPDLVKPSQSLSLTCTVTGYSITSGYSWHWIRQFPGNKLEWMGSIHYSGGTNYNPSLKSRISITRDTSKNQFFLQLNSVTTEDTATYFCARMTTAPRYPFDYWGQGTTLTVSSASTKGPSVFPLAPSSKSTSGGTAALGCLVKDYFPEPVTVSWNSGALTSGVHTFPAVLQSSGLYSLSSVVTVPSSSLGTQTYICNVNHKPSNTKVDKKVEPKSCDKTHTCPPCPAPELLAGPDVFCFPPKPKDTLMISRTPEVTCVVVDVSHEDPEVKFNWYVDGVEVHNAKTKPREEQYNSTYRVVSVLTVLHQDWLNGKEYKCKVSNKALPLPEECTISKAKGQPREPQVYTLPPSRDELTKNQVSLTCLVKGFYPSDIAVEWESNGQPENNYKTTPPVLDSDGSFFLYSKLTVDKSRWQQGNVFSCSVMHEALHNHYTQKSLSLSPGK
light: DIVMTQSQKFMSTSVGDRVSVTCKASQIVGSNVAWYQQKPGQSPKPLIYSASYRYSGVPDRFTASGSGTDFTLTITNVQSEDLAEYFCQQYSSHPLTFGAGTKLELKRTVAAPSVFIFPPSDEQLKSGTASVVCLLNNFYPREAKVQWKVDNALQSGNSQESVTEQDSKDSTYSLSSTLTLSKADYEKHKVYACEVTHQGLSSPVTKSFNRGEC
notes: also called Fc engineered 10D1 variant

% Parent (HE3 positive) [9]: 98.7%
% Parent (HER3 positive) [10]: 74.4%
Kd [11]: < 0.001 nM
koff [11]: < 1e-07 s⁻¹
kon [11]: 79800 M⁻¹ s⁻¹
% Parent (HER3 positive) [12]: 99.5%
B5: LJM716 (antibody, V domains shown)
VH: EVQLLESGGGLVQPGGSLRLSCAASGFTFSSYAMSWVRQAPGKGLEWVSAINSQGKSTYYADSVKGRFTISRDNSKNTLYLQMNSLRAEDTAVYYCARWGDEGFDIWGQGTLVTVSS
VL: DIQMTQSPSSLSASVGDRVTITCRASQGISNWLAWYQQKPGKAPKLLIYGASSLQSGVPSRFSGSGSGTDFTLTISSLQPEDFATYYCQQYSSFPTTFGQGTKVEIK
